By Kd is commonly meant the constant that tells how readily two partners part at equilibrium.

“And” between values parts separate entries of the source, which are not always exact repeats. Equal values may be shown once. Read-outs that look alike come from different tables or passages of the source. Where no end group is shown, it is not given here.

Data set [1] has as its target T1, G3BP1-NTF2 (residues 1-139) (human (by the printed UniProt entry …)). In words: nanoDSF.
Data set [2] deals with T1, G3BP1-NTF2 (residues 1-139). In words: nanoDSF. The source holds these as a separate data set. (In general: Differential scanning fluorimetry follows unfolding on heating by fluorescence.)
For data set [3] the target is unchanged. In words: nanoDSF. The source holds these as a separate data set.
Data set [4] shares this target. Put plainly: ITC.
A further data set addresses G3BP1-NTF2 H31A (human (by the printed UniProt entry …, UniProt Q13283, H31A)). Put plainly: ITC.
Data set [5] addresses T1, G3BP1-NTF2 (residues 1-139). In words: ITC. The source holds these as a separate data set.
The target is the same in data set [6]. In words: ITC. The source holds these as a separate data set. (In ITC the heat of successive injections is recorded.)

G3BP1-NTF2 H31A (human, sequence (Q13283 1-139 H31A): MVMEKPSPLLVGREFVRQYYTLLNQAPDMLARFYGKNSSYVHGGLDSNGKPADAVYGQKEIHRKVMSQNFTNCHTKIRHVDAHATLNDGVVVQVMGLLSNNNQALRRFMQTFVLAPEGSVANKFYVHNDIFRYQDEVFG

Turning to RQRVQDLMAQMQGPYNFIQDSMLDFENQTLD [Caprin-1^356-386 peptide], the figures for the dTm in data set [1], in data set [2] and in data set [3] were 1.5 °C, 1.3 °C and 4 °C, respectively.

On to {GFP}-RQRVQDLMAQMQGPYNFIQDSMADFENQTLD (domain or fragment) [GFP-Caprin-1^356-386 L378A], for which the dissociation constant Kd in data set [4] was ~20 µM.

As to {GFP}-RQRVQDLMAQMQGPYNFIQDSMLDFENQTLD (domain or fragment) [GFP-Caprin-1^356-386], the Kd came out at 15 µM in the data set with G3BP1-NTF2 H31A, 4 ± 2 µM in data set [5] and 1.4 µM in data set [6]. In addition, the dH with G3BP1-NTF2 H31A is -16 kcal/mol; in data set [4], -18 kcal/mol and -17 kcal/mol.

Regarding MALHSPQYIFGDFSPDEFNQFFVTPRSS (domain or fragment) [GFP-USP10^1-28], the dissociation constant Kd with G3BP1-NTF2 H31A is 3 µM; in data set [5], 1.5 ± 0.5 µM; in data set [6] it was 0.5 µM. Further, the values for the dH (in the data set with G3BP1-NTF2 H31A; in data set [4]) were -18 kcal/mol and -17 ± 1 kcal/mol, respectively.

The values above are taken from paper doi:10.1101/2021.02.05.429362 (bioRxiv, 2021).
